{"source": "patent US20130330358A1", "about": "(UNIVERSITY OF SOUTHERN CALIFORNIA, published 2013)", "binders": {"B1": {"name": "vIRF4^202-216 peptide (vif1) (peptide)", "peptide": "SVWIPVNEGASTSGM", "notes": "Synthesized peptide (Peptron); also called vif1 peptide"}, "B2": {"name": "vIRF4^153-256 (other)", "chain": "SDTREQSYEEAGAAAPAPPKAPSGLRGRPRKSNRYYNVGDITTEQKAACSVWIPVNEGASTSGMGSSGTRQVTQASSFTWRVPGDPPAPSTLTGPSDPHSSGAG"}}, "key": {"[1]": {"molecular_target": "HAUSP TRAF domain (HAUSP^62-205) (human)", "sequence (chain, as listed by the source)": "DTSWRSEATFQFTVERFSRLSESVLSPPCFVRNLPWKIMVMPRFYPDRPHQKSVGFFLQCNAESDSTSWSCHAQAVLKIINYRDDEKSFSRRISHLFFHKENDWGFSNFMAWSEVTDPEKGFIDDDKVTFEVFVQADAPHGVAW", "assay": "ITC, titration against HAUSP TRAF domain, 20 °C"}, "[2]": {"molecular_target": "HAUSP TRAF domain (HAUSP^62-205) (human)", "assay": "competitive ITC: vIRF4^202-216 titrated into TRAF pre-titrated with p53^350-364 (competitor)"}, "[3]": {"molecular_target": "HAUSP TRAF domain (HAUSP^62-205) (human)", "assay": "competitive ITC: vIRF4^202-216 titrated into TRAF pre-titrated with p53^355-369 (competitor)"}, "[4]": {"molecular_target": "HAUSP TRAF domain (HAUSP^62-205) (human)", "assay": "competitive ITC: vIRF4^202-216 titrated into TRAF pre-titrated with MDM2^137-152 (competitor)"}, "[5]": {"molecular_target": "HAUSP TRAF domain (HAUSP^62-205) (human)", "assay": "ITC"}}, "data": [{"binder": "B1", "values": [{"measurement": "TΔS", "setting": "[1]", "result": -10.6, "unit": "kcal/mol"}, {"measurement": "ΔG", "setting": "[1]", "result": -8.6, "unit": "kcal/mol"}, {"measurement": "ΔH", "setting": "[1]", "result": -19.2, "unit": "kcal/mol"}, {"measurement": "ΔHobs", "setting": "[2]", "result": -19.1, "unit": "kcal/mol"}, {"measurement": "ΔHobs", "setting": "[3]", "result": -19.1, "unit": "kcal/mol"}, {"measurement": "ΔHobs", "setting": "[4]", "result": -25.9, "unit": "kcal/mol"}]}, {"binder": "B2", "values": [{"measurement": "fold higher affinity (against vIRF4^153-216)", "setting": "[5]", "result": 7, "unit": "fold"}]}]}
